Measured values published in paper PMC8956632.

B1: 5-HT1AR-EGFP [human] / OX1R-Rluc [human] (parent)
chain 1: MDVLSPGQGNNTTSPPAPFETGGNTTGISDVTVSYQVITSLLLGTLIFCAVLGNACVVAAIALERSLQNVANYLIGSLAVTDLMVSVLVLPMAALYQVLNKWTLGQVTCDLFIALDVLCCTSSILHLCAIALDRYWAITDPIDYVNKRTPRRAAALISLTWLIGFLISIPPMLGWRTPEDRSDPDACTISKDHGYTIYSTFGAFYIPLLLMLVLYGRIFRAARFRIRKTVKKVEKTGADTRHGASPAPQPKKSVNGESGSRNWRLGVESKAGGALCANGAVRQGDDGAALEVIEVHRVGNSKEHLPLPSEAGPTPCAPASFERKNERNAEAKRKMALARERKTVKTLGIIMGTFILCWLPFFIVALVLPFCESSCHMPTLLGAIINWLGYSNSLLNPVIYAYFNKDFQNAFKKIIKCKFCRQ
chain 2: MEPSATPGAQMGVPPGSREPSPVPPDYEDEFLRYLWRDYLYPKQYEWVLIAAYVAVFVVALVGNTLVCLAVWRNHHMRTVTNYFIVNLSLADVLVTAICLPASLLVDITESWLFGHALCKVIPYLQAVSVSVAVLTLSFIALDRWYAICHPLLFKSTARRARGSILGIWAVSLAIMVPQAAVMECSSVLPELANRTRLFSVCDERWADDLYPKIYHSCFFIVTYLAPLGLMAMAYFQIFRKLWGRQIPGTTSALVRNWKRPSDQLGDLEQGLSGEPQPRARAFLAEVKQMRARRKTAKMLMVVLLVFALCYLPISVLNVLKRVFGMFRQASDREAVYACFTFSHWLVYANSAANPIIYNFLSGKFREQFKAAFSCCLPGLGPCGSLKAPSPRSSASHKSLSLQSRCSISKISEHVVLTSVTTVLP
B2: OX1R-EGFP [human] / 5-HT1AR-Rluc [human] (parent)
chain 1: B1 chain 2
chain 2: B1 chain 1

Variants of: B1
Test: BRET
Conditions: with OX1R-Rluc [human]; HEK293 cells, basal (no agonist); parent: 0.26; read off a plot

Variant	response
chain 1 MDVLSPGQGNNTTSPPAPFETGGNTTGISDVTVSYQVITSLLLGTLIFCAVLGNACVVAAIALERSLQNVANYLIGSLAVTDLMVSVLVLPMAALYQVLNKWTLGQVTCDLFIALDVLCCTSSILHLCAIALDRYWAITDPIDYVNKRTPARAAALISLTWLIGFLISIPPMLGWRTPEDRSDPDACTISKDHGYTIYSTFGAFYIPLLLMLVLYGRIFRAARFRIRKTVKKVEKTGADTRHGASPAPQPKKSVNGESGSRNWRLGVESKAGGALCANGAVRQGDDGAALEVIEVHRVGNSKEHLPLPSEAGPTPCAPASFERKNERNAEAKRKMALARERKTVKTLGIIMGTFILCWLPFFIVALVLPFCESSCHMPTLLGAIINWLGYSNSLLNPVIYAYFNKDFQNAFKKIIKCKFCRQ [chain 1 R151A]	0.16
chain 1 MDVLSPGQGNNTTSPPAPFETGGNTTGISDVTVSYQVITSLLLGTLIFCAVLGNACVVAAIALERSLQNVANYLIGSLAVTDLMVSVLVLPMAALYQVLNKWTLGQVTCDLFIALDVLCCTSSILHLCAIALDRYWAITDPIDYVNKRTPRRAAALISLTWLIGFLISIPPMLGWRTPEDRSDPDACTISKDHGYTIASTFGAFYIPLLLMLVLYGRIFRAARFRIRKTVKKVEKTGADTRHGASPAPQPKKSVNGESGSRNWRLGVESKAGGALCANGAVRQGDDGAALEVIEVHRVGNSKEHLPLPSEAGPTPCAPASFERKNERNAEAKRKMALARERKTVKTLGIIMGTFILCWLPFFIVALVLPFCESSCHMPTLLGAIINWLGYSNSLLNPVIYAYFNKDFQNAFKKIIKCKFCRQ [chain 1 Y198A]	0.23
chain 1 MDVLSPGQGNNTTSPPAPFETGGNTTGISDVTVSYQVITSLLLGTLIFCAVLGNACVVAAIALERSLQNVANYLIGSLAVTDLMVSVLVLPMAALYQVLNKWTLGQVTCDLFIALDVLCCTSSILHLCAIALDRYWAITDPIDYVNKRTPRRAAALISLTWLIGFLISIPPMLGARTPEDRSDPDACTISKDHGYTIYSTFGAFYIPLLLMLVLYGRIFRAARFRIRKTVKKVEKTGADTRHGASPAPQPKKSVNGESGSRNWRLGVESKAGGALCANGAVRQGDDGAALEVIEVHRVGNSKEHLPLPSEAGPTPCAPASFERKNERNAEAKRKMALARERKTVKTLGIIMGTFILCWLPFFIVALVLPFCESSCHMPTLLGAIINWLGYSNSLLNPVIYAYFNKDFQNAFKKIIKCKFCRQ [chain 1 W175A]	0.26

Variants of: B2
Test: BRET
Conditions: with 5-HT1AR-Rluc [human]; HEK293 cells, basal (no agonist); parent: 0.27; read off a plot

Variant	response
chain 1 MEPSATPGAQMGVPPGSREPSPVPPDYEDEFLRYLWRDYLYPKQYEWVLIAAYVAVFVVALVGNTLVCLAVWRNHHMRTVTNYFIVNLSLADVLVTAICLPASLLVDITESWLFGHALCKVIPYLQAVSVSVAVLTLSFIALDRWYAICHPLLFKSTARRARGSILGIWAVSLAIAVPQAAVMECSSVLPELANRTRLFSVCDERWADDLYPKIYHSCFFIVTYLAPLGLMAMAYFQIFRKLWGRQIPGTTSALVRNWKRPSDQLGDLEQGLSGEPQPRARAFLAEVKQMRARRKTAKMLMVVLLVFALCYLPISVLNVLKRVFGMFRQASDREAVYACFTFSHWLVYANSAANPIIYNFLSGKFREQFKAAFSCCLPGLGPCGSLKAPSPRSSASHKSLSLQSRCSISKISEHVVLTSVTTVLP [chain 1 M176A]	0.15
chain 1 MEPSATPGAQMGVPPGSREPSPVPPDYEDEFLRYLWRDYLYPKQYEWVLIAAYVAVFVVALVGNTLVCLAVWRNHHMRTVTNYFIVNLSLADVLVTAICLPASLLVDITESWLFGHALCKVIPYLQAVSVSVAVLTLSFIALDRWYAICHPLLFKSTARAARGSILGIWAVSLAIMVPQAAVMECSSVLPELANRTRLFSVCDERWADDLYPKIYHSCFFIVTYLAPLGLMAMAYFQIFRKLWGRQIPGTTSALVRNWKRPSDQLGDLEQGLSGEPQPRARAFLAEVKQMRARRKTAKMLMVVLLVFALCYLPISVLNVLKRVFGMFRQASDREAVYACFTFSHWLVYANSAANPIIYNFLSGKFREQFKAAFSCCLPGLGPCGSLKAPSPRSSASHKSLSLQSRCSISKISEHVVLTSVTTVLP [chain 1 R160A]	0.27
chain 1 MEPSATPGAQMGVPPGSREPSPVPPDYEDEFLRYLWRDYLYPKQYEWVLIAAYVAVFVVALVGNTLVCLAVWRNHHMRTVTNYFIVNLSLADVLVTAICLPASLLVDITESWLFGHALCKVIPYLQAVSVSVAVLTLSFIALDRWYAICHPLLFKSTARRARGSILGIWAVSLAIMVPQAAVMECSSVLPELANRTRLFSVCDERWADDLYPKIYHSCFFIVTYLAPLGAMAMAYFQIFRKLWGRQIPGTTSALVRNWKRPSDQLGDLEQGLSGEPQPRARAFLAEVKQMRARRKTAKMLMVVLLVFALCYLPISVLNVLKRVFGMFRQASDREAVYACFTFSHWLVYANSAANPIIYNFLSGKFREQFKAAFSCCLPGLGPCGSLKAPSPRSSASHKSLSLQSRCSISKISEHVVLTSVTTVLP [chain 1 L230A]	0.21
chain 1 MEPSATPGAQMGVPPGSREPSPVPPDYEDEFLRYLWRDYLYPKQYEWVLIAAYVAVFVVALVGNTLVCLAVWRNHHMRTVTNYFIVNLSLADVLVTAICLPASLLVDITESWLFGHALCKVIPYLQAVSVSVAVLTLSFIALDRWYAICHPLLFKSTARRARGSILGIWAVSLAIMVPQAAVMECSSVLPELANRTRLFSVCDERWADDLYPKIYHSCFFIVTYAAPLGLMAMAYFQIFRKLWGRQIPGTTSALVRNWKRPSDQLGDLEQGLSGEPQPRARAFLAEVKQMRARRKTAKMLMVVLLVFALCYLPISVLNVLKRVFGMFRQASDREAVYACFTFSHWLVYANSAANPIIYNFLSGKFREQFKAAFSCCLPGLGPCGSLKAPSPRSSASHKSLSLQSRCSISKISEHVVLTSVTTVLP [chain 1 L225A]	0.23
